From the nanobody polyreactivity screen of Harvey et al. (2022)

Assay: yeast display, Sf9 membrane polyspecificity reagent, FACS + sequencing; frameworks hold sequencing errors
In short: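 Sorting gates, low and high (top ~1%), were placed on anti-HA fluorescence to track expression and on streptavidin fluorescence to track reagent binding. A clone's polyreactivity label is taken from the gate it came out of. The reagent was 10% biotinylated, detergent-solubilized Sf9 membrane, applied for 1 hour at 4 °C to galactose-induced yeast display cells.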

Sequence	polyreactivity (PSR sort gate)
QVQLVESGGGLVQAGGSLRLSCAASGFTYDLNAMGWYRQAPGKEREFVATISQSTGSTYYADSVKGRFTISRDNAKNTVYLQMNSLKPEDTAVYYCNKDRPYTLTWGLYEYWGQGTQVTVSS	low polyreactivity
QDQLVESGGGLVQAGGSLRLSCAASGPIFYPYVMGWYRQAPGKERELVAAISDSTGSTYYADSVKGRFTISRDNAKNTVYLQMNSLKPEDTAVYYWGQGTQVTVSS	low polyreactivity
QVQLVESGVGIVQARGSLRLSCAASGYTFYRYTMGWYRQSRGNERELVAAINSGGSTNYADSVKGRFTISRDNAKNTVYLQMNSLKPEDTAVYYCAAGDGPWLPRVHYGGYGYWGQGTQVTVSS	high polyreactivity
QVQRVESGGGLVQAGGSLRLSCAASGRTFRYYAMGWYRQAPGKERELVAAITSGGSTSYADSVKGRFTISRDNAKNTVYLQMNSLKPEDTAVYYCAAVPAGLWATYPQFRYGYWGQGTQVTVSS	high polyreactivity
QVQQQESGGGLVQAGGSLRLSCAASGTIFQLTVMGRYRQAPGKDRELVASIDYGGNTNYADSVKGRFTISRDNAKNTVYLQMNCRKPEDTAVYYCAASSDSWTTHPYWGQGTQVTVRS	low polyreactivity
QVQLQESGGCLVQAGGSLRLSCAASGPISRRSTMGWYSQAPGKERELVTAITRGTNTNYADSVKGRFTISRDNAKNTEYLQMNSLKTEDTAVYYCAAYGVLKPSRGDAVFHRYWGQGTQVTVSS	low polyreactivity
QVQLVESGGGLVQAGGSLRLSCAASGRIFGRYAMGWYRQAPGKERELVAAISSGGNTYYADSVKGRFTISRDNAKNTVYLQMNSLKPEDTAVYYCKALYYRQPGYDYWGQGTQVTVSS	high polyreactivity
QVQLVESGGGLVQAGGSLRLSCAASGSILDSYAMGWDRQAPGKERELVAASTRSGVRTYYADSVKGRFTISRDNAKNTVYLQMNSLKPEDTAVYYCAARVTRYRDLNYWGQGTQVTVSS	high polyreactivity
QVQLVESGGGLVQAGGSLRLSCAASGRTFAGYAMGWYRQAPGKERELVAAISGSGGRTYYADSVKGRFTISRDNAKNTVYLQMNSLKPEDTAVYYCAASQRVYIARSDYWGQGTQATVSS	high polyreactivity
QVQLVESGGGLVQAGGSLRLSCAASGFTFDENAMGWYRQAPGINYSGASTYYADSVKGRFTISRDNATNTVYLQMNSLKPEDTAVYYCAAEVVAQMNYWGQGTQVTVSS	low polyreactivity
QVQLVETGGGLVQAGGSHRLSCAASGSIFGKNVIGRYRQAPGKERELVAAITSGASTYYADSVKGRFTISRDNAKNTVYLQINSLKPEDTAVYYCAARRWRKYYSGYNYWGQGTQVSVSS	high polyreactivity
QVQLVESGGGLVQAGGSLRLSCAASGSTSYFNVMGWYRQAPGKERELVAAISWSGGSTYADSVKGRFTISRDNAKNTVYLQMNSLKPEDTAVYYCNKDYGYVQLRFYGPGYYWGQGTQVTVSS	low polyreactivity
QLQLVESGGGLVQAGGSLRLSCAASGSTYHINAMGWYRQAPGKERELVADINWSGGSTYYADSVKGRFTISRDNAKNTVYLQMNSLKPEDTAVYYCAADVGVFTYSPYDAGEHDYWGQGTQVTVSS	low polyreactivity
QVQLLQTGGGLVQAGGSLRLSCAASGRIFVVNAMGWNRLAPGKEREMVADISSGVSTNYADSVKGRFTISRDNAKNTVYLQMNILKPEDTALYYCNSRFRFRYKFPSRNSWGQGTLVTVSS	high polyreactivity
QVQLVESGGGLVQAGGILRLSCAASGLIFTYYAMGWYRQAPWKERELLAAINYSGGSTYYADSVKGRFTISRDNAKNTVYLQMNSLKPEDTAVYYCNAGYGEHPLSGYEYWGQSTQVTVSS	low polyreactivity
QVQLVESGGGLVQAGGSLRLSCASSGSTFWFYAMGWYRQAPGKERELVAAITRSAGSTYYADSVKGRFTISRDNAKNTVYLQMNSLKPEGTAVYYCAAQRESLYGGFDYWGQGTQVTVSS	low polyreactivity
QVQLVESGGGIVQAGGSLRLSCAASGRIFRINGMGWYRQAPGKEREFVAAITSGGGTYYADSVKGRFTISRDNAKNTVYLQMNSLKAEDTAVFYCAVRRRYGDDYWGHGTQVTVSS	high polyreactivity
QVQLVESGGGLVQAGGSLRLSCAASGRTFVSNDMGWYRQAPGKERELVATISSGASTYYADSVKGRFTISRDNAKITVYLQMNSLKPEDTAVYYCAAEVLVFGGGYDYWGQGTQVTVSS	low polyreactivity
QVQLVESGGGLVQAGGSLRLSCAASGSIFGGYGMGCYRQAPGKERALVAAITSGSSTYYADSVKGRFTISRDNAKKTVYLQMPSLTPEDTAGYYCNADYAYYRDVYSPYDSWGQGTQVTVSS	low polyreactivity
QVQLVESGGGLVQAGGSLRLSCAASGFTFARNAMGWYRQAPGKERELVAAINRSGGSTYYADSVKGRFTISRDNAKNTVYLQMNSLKPEDTAVYYCNKPRLAQQGYDYWGQGTQVTVSS	high polyreactivity
QVQLVESGGGLVQAGGSLRLICAASGYIFRDYAMGWYRQAPGKERELVATISSGGSTSYADSVKGRFTISRDNAKNTVYLQMNSLKPEDTAVYYCAADVANTSAEYYYWGQGTQVTVSS	low polyreactivity
QVQLVESGGGLVQAGGSLRLSCAASGSNFFYYVMGWYRQAPGKERERVAAITRSTGSTYYADSVKGRFTISRDNAKNTVYLQMNSLIPEDTAVYSCAAEGPKWYYSGAFDYWGQGTQVTVSS	low polyreactivity

Sequence	polyreactivity (PSR sort gate)
QVQLVESGGGLVQAGGILRLSCAASGSIFAHYTMGWYRKAPGKERELVAAISGSGGSTYYADSVKGRFTISRDNAKNTVYLQMNSLKPEVTAVYYCNKRYRPVGPYDYWGQGTQVTVSS	high polyreactivity
QVQLVESGGGLVQAGGSLRLSCAASGSIFYSNAMGWYRQAPGKERELVAAINWSGVRTYYADSVKGRFTISRDNAKNTVYLQMNSLKPEDTAVYYCAAKTYQQQIVRPMYYWGQCTQVTVSS	high polyreactivity
QDHLVESGGGLVQAGGSLRLSCAASGRIFSYYVMGWYRQAPGKERELVAAITSGCSTNYADSVKGRFTISRDNAKNNVYLQMNSLKPEDTAVYYFNRAYTYINRLYGYWGQGTQVTVSS	high polyreactivity
QVQLVESGGGLVQAGGSLRLSCAASGINFGQNAMGWYRQAPGKERELVAAITISVGSTYYADSVKGRFTISRDNAKNTVYLQMNSLKPEDTAVYYCAARRVTWKVIARGYRYGYWGQGTQVTVTS	low polyreactivity
QVQLVESGGGLVQAGGSLRLSCAASGSTFVGYAMGWYRQAPGQERELVAGITINGGSTYYADSVKGRFTISRDNAKNTVYLQMNSLKPEDTAVYYCAATGNENYPDPLQSMDYWGQGTQVTVSS	low polyreactivity
QVQLVESGGGLVQAGGSLRLSCAASGSIFNTNAMGWYRQAPGKERELVAAISKNAGRTFYADSVKGRFTISRDNAKNTVYLQMNSLKPEDTAVYYCAARGVGPQPGYQRFNYWGQGTQVTVSS	high polyreactivity
QVQLVESGGGLVQAGGSLRLSCAASGFTFYGYAMGWYRQAPGKERELVAAISSSGGRTYYADSVKGRFTISRDNEKNTVYLQMNSLKPEDTAVYYCAAEYRSYRDGYWGLGTQVTVSS	high polyreactivity
QYQLVESGGGLVQAGGSLSLSCAASATTFSAYAMGWYRQAPGKERELVAAISASGGSTYYADSVKGRFTISRDNAKNTVYLQMNSLKPEDNAVYFCNADRWKYELDYCGQGTQVTVSS	high polyreactivity
QVQLVESGGGLVQAGVSLRIRCAASGSIFFFNAMGWYRQAPGKEREFVAAITSSSGRTYYAYSVKVRFTISRDNAKNTVYLQMKSLKPEDTAVYYCAAQVPEDNETVDYWGQGTQVTVSS	low polyreactivity
QVQLVESGGGLVQAGGSLRISCAASGNTVNDYTMGWYRQEPGKERELVAAIRSGGRTYYADSVKGRFTISRDNAKNTVYLQMNSLKPEDTAVYYCAALAVTYRYDYWGQGTQVTVSS	high polyreactivity
QVQLVESGGGLVQAGGSLRLSCAASGRTFDGNTMGWYRQAPGKERELVAAITKRGGSTYYADSVKGRFTFSRDNAKNTVYLQMNSLKPEDTAVYYCAKGQSYSTRLSPYYYWGQGTQVTVSS	high polyreactivity
QVQLVESGGGLDQAGGSHRLSCAASGRTFPGNAMGWYRQAPGKERELVAAISWSGSRTYYADSLKGRFTISRDNAKNTVYLHMTRMKPEDTAVYYCNVVVKGAWEYYPYDYWGQGTEVTVSS	high polyreactivity
QVQLLESGGGLVQAGGSLRLSCAASGRIFQFYAMGWYRKAPGKERELVAANSVRGGSTYYAHSVKGRFTISRDNEKNTVYLQMNSLKPEDTAVYYCAASKWGGYYYWGQGTQVTVSS	high polyreactivity
QVQLVESGGGLVQAGGSLRLSCAASGITFFWYDMGWYRQAPGKERELVASISSGGTTSYADSVKGRFTISRDNAKNTVYLQMNSLKPEDTAVYYCAATHWNRWHFDYWGQGTQVTVSS	low polyreactivity
QVQLVESGGGLVQAGGSLRLSSPDSGLIFYLYAMGWYRQSHGKEREFVAAITSGGGSTYYADSVKGRFTISRDNAKNTVYLQINILIPEDTAVFYCAARLVLYITVVYEVDYWGQGTQVTVSS	low polyreactivity
QVQLVESGGGLVQAGGSLRLSCAASGRIFAWYAMGWYRQAPGKERELVAAISDSGRSTYYADSVKGRFTISRDNAKNTVYLQMNSLKPEDNAVYYCAADQVVYSAYWCDHYDYWGQGTQVTVSS	low polyreactivity
QVQLVESGGGLVQAGGSLRLSCAASGLIFDSYAMGWYRQAPGKERELVAAITYTGGSTYYADSVKGRFTISRDNAKNTVYLQMNSLKPEDTAVYYCAAVTRYAGRIRYGYWGQGTQVTVSS	high polyreactivity
QVQLVESGGGLVQAGGSLRLSCAASGRIFDGYAMGWYRQAPGKERELVAAISNGGGSTYYADSVKGRFTISRDNAKNTVYLQMNSLKPEDTAVYYCAARIFSRYTRNYWGQGTQVTVSS	high polyreactivity
QVQLVESGGGLVQAGGSLRLSCAASGRIFKYYAMGWYRQAPGKERELVAAISRGGSTYYADSVKGRFTISRDNAKNTVYLQMNSLKPEDTAVYYCNRLSNNREYDYWGQGTQVTVSS	high polyreactivity
QVQLVESGGGLVQAGGSLRLICAASGITFFRNAMGWYRQAPGKERELVATITKSGGSTYYADSVKGRFTISRDNAKNTVYLQMNSLKPDDTSVYYCSAVRRYPVKYVAYDYWGQGTQVTVSS	low polyreactivity
QVQLVESGGGLVQAGGSLRCSCSASGGIFVNYAMGWSRPAPGKETELVAAISRSGGSTYYADSVKGRFTISRDNANNTVYLQMNSLKPEDTAVYYCAKRRVYYGSRYHYWGEGTQVTVSS	high polyreactivity
